13 sequences from a protein production outcome set (Wang et al. 2014) can be followed below.
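Also: failed if final PepcDB status was selected cloned or expressed and not failed if soluble or beyond.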

This data set can be described thus: label from the status in PepcDB records.
Turning to “RLSAREAIALLSDDFDRLPVAEGAYAPDGPLSWQGYDASRARATERTGEDESVVCGRARIDGTPAVLIAFEFGFLGGSLGERTGDRLEAAYTYARAHRLPVVSLVATGGSRMQEGMLALTQLQRVARQSALTRAAGLPQLAVLRDPTTGGGWATLGAGADVVLALPGVQVGFAGSRVRPPDADPAAYTAQAQLAAGSIDAVVRPQELRETVGLWLALLTAPSTEP”, the protein production entry is given as “failed”.

“MPTLLNIQEFNKLNMNTILHITKRQQWEQAKNVGSYHADSLDTEGFIHSSKSIQILKVANRFFHHQTELVLLFIDSDQVKPEIRYEAADGDLFPHIYGELNLDAVYQVIDFEPGEDGLFEVPPEVVSLG”: the protein production entry is given as “failed”.

For the sequence “MFTALLFTLGIAAATSFNASAIDNHNNKNKLPDIGISGYSVLSTDKELQIGKAMMRQLRASQPLIQDPVLIEYINHLGNSLVKNAQGVNYAFEFFLINNNELNAFAFFGGHVGIHSGLITTADTESELASVIAHEISHVTQRHLARRLESQSQTQGLTMAAMLSSVLITLVNPTVGIAALSASMAVTQQASINYTRGNEKEADRVGIALLASSNYDPQGAASFFSKMSTKYRYASKPPAMLLTHPLPESRIADARQRALNYPARPLPPSLGFELTKARLKSRYQGEAKSNISFFKLQLEKKRYAIKAAAQYGLALSYFENKQTSEALQLLEMLEKNDKDNLFYVDALTDVYIANNQANKAIKMLERLNLFMPNNQVVSLNYANALLSVKEYDLAAQILQDFLLVNPGNFIAYDILTTLYRTQEKTGLMHMSKAEVYALLGAYPKAVDELQTSYAFLDEQPLMQKRVKARILQLQEQENRLKRL”, the protein production result is on record as “failed”.

In the case of “REHDFDDLKFEHFLASAAGAFPAFLEVAEKRIIGEGVLRAVKESMRWHRAENVHFGAFLLLVPLISSWDAGGMVDIAEAARNRLRRTDFRDSLSVLEAFRLSNARVVEAGELNLKDRKTEEEIAQKKINLYEWMKMAPEENLIARELVDGFKISIEGAKFLLSFGNSGKAVVELYYHLLSKFPDPLVIAKMGREYAEKITEWAEKARTEEERKELDEKLLKDGANPGTIADLTASSIFLALAEGWR”, the protein production result was “not failed”.

For the sequence “SLLCGPLRLSESGETWSEVWAAIPMSDPQVLHLQGGSQDGRLPRTIPLPSCKLSVPDPEERLDSGHVWKLQWAKQSWYLSASSAELQQQWLETLSTAAH”, the protein production result is listed as “not failed”.

Consider “MHIAILGCTSQIAKDLIRSIYVYSQHDLILFGRTPQQTQSWLAENGITSRCSVNQYEEYPNIDHDVVINFVGIGDPSKAAAMGGSIFDITLHYDELVLNELKKYPDRRYLFLSSGAAYGSSFLEPADADTPSTININNLLPQEYYSVAKLHAECRHRSLKEYAIVDLRVFNVFSRTQDLEARFFITDIVRSIHSGTELITSSDMIYRDFMHPKDFYQLVERVLNAPPMNISLDCYSRQPVDKTTLLDEMKKTFGLSYRVKESNMSINATGIKPCYYSKNKRAAEFGYLPEYSSLETIIEETNAILGLQKTVLEHHHHHH”, for which the protein production entry was “not failed”.

Take “RTNRLSAVQSNKMIVRAMERGVSAERLGKALGLSPQTIRQRFRLLNGICAEVVALLGDTDCPANVFNLLRQMKPLRQIEAAELMIGNKNLSVLLAKALLAATPPDQLVMIKKPSQDHQVSAESMARLERELAALQMQIKTVEEDYGPDVLHLTVIKGYLTKLLANAAVVRWLARHQPEYLKEFQSIAELTELPWADNGPEDDLQSTTAEG”: the protein production entry was “not failed”.

As to “MVRGDDQLNGLQGGKRALDILCVATERTVSAFAYEEIGETSTEGDKRRERLRRLRRLINYSLSTTMNSSLSKRLKIDECKNQDPEQNPNRVASSPSSCHLESKRPQKVVSNKPVRNRKPVIVTDEDRTPTEWLIDVMREVNGMDAKLIFVKVLPNSDVDELQTRLMMPWKQILDMDFLNEEELEKIDRHHKKISASDKGADVIVVNSKGLQRKLKLKRWDMTSTSNYVLGLGWNKVVTDNILQRGTRLRIWSFHSPDMLFFAFVLSDPDPAPTECLNLLAKLCEETTCLEALQEANRMSSLVSDTELDLELRL”, the protein production result is given as “failed”.

Consider “MDIEDLRTFVAVADAGGVSAAARRLGISKSIVSRRLFRIEAELGVQLLARTTRGAALTEAGITFRDHAARASAEIDTARETILPAGELHGRLRIAMPLTFGPTHFAPVLAEMARQHPQLHIHTSYSDRFVDLIAEGFDCAIRGAYLQDSNLIAKRVGPIHGKLVASPAYIKAHGSPEMVEQLVNHQALMQGTEAWQFMDGDRIVTVQPQGKFKADSATALAAAAAAGLGIAWLPDCITHAYLASGALVPIMTRYPVPPGAVYVVRPPSQHPARKVRVLTEMLTEYFKRTPELWGVDG”, for which the protein production result is on record as “failed”.

Turning to “MKEKVSVPFMLLGILFNVCLIAANLLETKVIQVGSITVTAGLLVFPISYIINDCIAEVWGFKKARLIIWSGFAMNFFVVALGLIAVALPAAPFWEGEQHFDFVFGMAPRIVVASLLAFLVGSFLNAYVMSKMKVASGGRNFSSRAIWSTMVGETADSLIFFPIAFGGLIAWPELLVMMGTQIVLKSLYEVIILPITIRVVKAVKRIDGSDVYDTDISYNVLKVKDI”, the protein production entry is “failed”.

Regarding “MTQQTFLVEIGTEELPPKALRSLAESFAANFTAELNNANLPYGEVIWYAAPRRLALKVTNLSATQADREVEKRGPAIAQAFDAEGKPSKAAEGWARGCGITVDQAERLVTDKGEWLLYRAHVKGQSAQLLLAGMVNTALSKLPIPKLMRWGDKDTQFVRPVHTVTMLLGSEVIPGTVLGIDSDRIIRGHRFMGEPEFTLDNADQYPQVLQERGKVIADYELRKAIIKRDAELAAQKIGGVADLSESLLEEVASLVEWPVVLTAKFEEKFLAVPAEALVYTMKGDQKYFPVYDTAGNLLPNFIFVANIESKDPQQIISGNEKVVRPRLADAEFFFKTDRKKRLEDNLPRLETVLFQQQLGTLRDKTDRIQALAGWVAAQIGADVNHATRAGLLSKCDLMTNMVFEFTDTQGVMGMHYARHDGEAEDVAVALNEQYQPRFAGDDLPSNPVACALAIADKMDTLAGIFGIGQHPKGDKDPFALRRAALGVLRIIVEKNLPLDLQTLTEEAVRLYGSKLTNTKVVDEVIEFMLGRFRAWYQDEGHSVDTIQAVLARRPTRPADFDARVKAVTYFRTLDAAAALAAANKRVSNILAKSTDKLNDHVRASVLKEPAELKLATHLVVLRDKLEPVFAAGQYQEALVELAALRETVDEFFESVMVMDEDDAVRVNRLTLLSKLRELFLQVADISLLQ”, the protein production entry is on record as “not failed”.

As for “MTIPYKEQRLPIEKVFRDPVHNYIHVQHQVILDLINSAEVQRLRRIKQLGTSSFTFHGAEHSRFSHSLGVYEITRRICEIFQRNYSVERLGENGWNDDERLITLCAALLHDVGHGPYSHTFEHIFDTNHEAITVQIITSPETEVYQILNRVSADFPEKVASVITKQYPNPQVVQMISSQIDADRMDYLLRDAYFTGTEYGTFDLTRILRVIRPYKGGIAFAMNGMHAVEDYIVSRYQMYVQVYFHPVSRGMEVILDHLLHRAKELFENPEFDYDLQASLLVPFFKGDFTLQEYLKLDDGVLSTYFTQWMDVPDSILGDLAKRFLMRKPLKSATFTNEKESAATIAYLRELIEKVGFNPKYYTAINSSYDLPYDFYRPNKDRHRTQIELMQKDGSLVELATVSPLVAALAGQSQGDERFYFPKEMLDQGNKKHYDLFDETYREFSSYIHNGALVLKK”, the protein production result is on record as “not failed”.

Regarding “MSVALPRSPDVDGSLSEAPNRIDVVTFGCRLNTYESEVMRREAESAGLGALQGGAVIFNTCAVTGEAVRQARQAIRKARRDNPGARIIVTGCAAQTEPEKFAAMDEVDLVLGNEEKLKANSYRALPDFGVNDTEKARVNDIFSVRETAGHMVDAIEGRARAFVQVQNGCDHRCTFCIIPYGRGNSRSVPMGAVVEQVKRLAGNGYAEIVLTGVDMTSFGADLPGAPKLGRLVKTILKQVPDVKRLRLSSIDSIEADDDLLDAIATEPRLMPHLHLSLQSGDDMILKRMKRRHLRDQSIRFCEDVRKLRPEIVFGADIIAGFPTETDAMFENSIKIVEECGLTHLHVFPFSPREGTPAARMPQVRREVVKQRAARLRAAGEAAYRRHLSSLPGTRQSILIERDGLGRTEGFTLAALGTGAPGEIVEATITGHDGARLNAVPLAARAA”, the protein production result is given as “failed”.
